For data set [1], the target named is T1, human retinal guanylyl cyclase RetGC1 (human, UniProt Q02846 52-1103).
T1 sequence (looked up): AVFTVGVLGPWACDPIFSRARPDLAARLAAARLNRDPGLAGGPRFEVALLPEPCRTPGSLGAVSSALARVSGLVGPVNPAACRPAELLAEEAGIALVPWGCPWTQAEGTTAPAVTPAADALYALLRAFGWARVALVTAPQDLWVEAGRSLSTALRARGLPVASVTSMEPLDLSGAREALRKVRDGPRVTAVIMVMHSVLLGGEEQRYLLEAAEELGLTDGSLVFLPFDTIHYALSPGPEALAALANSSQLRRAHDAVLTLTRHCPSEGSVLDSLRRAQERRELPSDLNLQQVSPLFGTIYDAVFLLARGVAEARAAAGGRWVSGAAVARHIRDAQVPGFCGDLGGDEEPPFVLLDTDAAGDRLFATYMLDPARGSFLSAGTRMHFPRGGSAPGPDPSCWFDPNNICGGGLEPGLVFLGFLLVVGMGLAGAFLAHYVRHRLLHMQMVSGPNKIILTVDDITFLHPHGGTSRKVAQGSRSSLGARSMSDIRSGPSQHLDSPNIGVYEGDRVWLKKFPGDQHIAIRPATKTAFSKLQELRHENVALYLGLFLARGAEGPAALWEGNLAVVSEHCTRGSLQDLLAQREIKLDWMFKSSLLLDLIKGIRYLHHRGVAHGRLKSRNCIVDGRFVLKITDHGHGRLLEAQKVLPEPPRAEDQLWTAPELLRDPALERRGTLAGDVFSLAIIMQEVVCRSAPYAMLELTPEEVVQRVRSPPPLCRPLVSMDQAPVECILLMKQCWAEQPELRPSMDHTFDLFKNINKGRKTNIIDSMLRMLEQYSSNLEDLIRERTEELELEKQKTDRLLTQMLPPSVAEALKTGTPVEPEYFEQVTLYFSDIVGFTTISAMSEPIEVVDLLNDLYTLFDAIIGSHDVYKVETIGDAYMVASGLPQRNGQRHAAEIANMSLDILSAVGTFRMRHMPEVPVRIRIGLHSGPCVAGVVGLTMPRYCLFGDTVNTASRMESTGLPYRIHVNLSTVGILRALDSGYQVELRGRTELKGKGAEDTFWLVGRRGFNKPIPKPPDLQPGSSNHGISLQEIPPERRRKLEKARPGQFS

Data set [2] deals with the molecule itself. Briefly: EPR-DEER; spin-labelled (MTSSL) single-Cys GCAP1 at ~300 uM, 10 mM Tris-d11 pH 7.4, 2 mM MgCl2, D2O, 25% glycerol-d8, frozen, 50 or 80 K; Ca2+-free/Mg2+-bound state, similar data in the Ca2+-bound state; intermolecular spin-label distances.
Data set [3] deals with the molecule itself. Briefly: NMR pulsed-field gradient diffusion; translational diffusion coefficient of spin-labelled GCAP1^CL(T29C); molar mass from D.
Data set [4] concerns the molecule itself. Briefly: SEC; analytical SEC, Superdex 200 HR 10/30, 100 uL of 200 uM protein, 10 mM Tris pH 7.4, 100 mM NaCl, 1 mM DTT, 4 C, with saturating Mg2+ (2 mM) or Ca2+ (2 mM); molar mass from elution time against protein standards. On the technique in general: SEC sorts molecules by how far they enter the pores of the column.
Data set [5] concerns the target T1, human retinal guanylyl cyclase RetGC1. Briefly: cell-based or functional assay.

Like-named read-outs stand apart in the source and are kept apart here.

B1: Cys-less mutant of GCAP1 (GCAP1^CL) (natural protein)
chain: MGNIMSGKSVEELSSTETHQWYKKFMTETPSGQLTLYEFRQFFGLKNLSPWASQYVEQMFETFDFNKDGYIDFMEYVAALSLVLKGKVEQKLRWYFKLYDVDGNGTIDRDELLTIIRAIRAINPTSDSTMTAEEFTDTVFSKIDVNGDGELSLEEFMEGVQKDQMLLDTLTRSLDLTRIVRRLQNGEQDEEGASGRETEAAEADG
modifications: N-terminal myristoylation
The molecule B1 registered an EC50 of activation of RetGC1 (HEK293 membranes) in the absence of Ca2+ (EGTA), guanylyl cyclase assay in data set [1] of 14 µM.

B2: GCAP1^CL(E133C), nitroxide spin-labelled (natural protein, bovine, UniProt P46065 1-205, looked up)
chain: MGNIMSGKSVEELSSTETHQWYKKFMTETPSGQLTLYEFRQFFGLKNLSPWASQYVEQMFETFDFNKDGYIDFMEYVAALSLVLKGKVEQKLRWYFKLYDVDGNGTIDRDELLTIIRAIRAINPTSDSTMTACEFTDTVFSKIDVNGDGELSLEEFMEGVQKDQMLLDTLTRSLDLTRIVRRLQNGEQDEEGASGRETEAAEADG
modifications: N-terminal myristoylation; MTSSL nitroxide spin-label on Cys133
notes: GCAP1, bovine, D6S background, Cys-less (all four native Cys C18, C29, C106, C125 to Thr), with a single Cys at 133; source: E. coli BL21(DE3), co-expressed with yeast N-myristoyl CoA transferase, purified, labelled with MTSSL
B2: the binding result in data set [2] was “binds”.

B3: GCAP1^CL(T29C), spin-labelled (natural protein, bovine, UniProt P46065 1-205, looked up)
chain: MGNIMSGKSVEELSSTETHQWYKKFMTECPSGQLTLYEFRQFFGLKNLSPWASQYVEQMFETFDFNKDGYIDFMEYVAALSLVLKGKVEQKLRWYFKLYDVDGNGTIDRDELLTIIRAIRAINPTSDSTMTAEEFTDTVFSKIDVNGDGELSLEEFMEGVQKDQMLLDTLTRSLDLTRIVRRLQNGEQDEEGASGRETEAAEADG
modifications: N-terminal myristoylation; MTSSL spin-label on Cys29 (N-O group reduced for the HSQC spectrum)
notes: GCAP1, bovine, D6S background, Cys-less parent (C18, C29, C106, C125 to Thr) in which T29C restores the natural Cys29; also called spin-labeled GCAP1^CL(T29C); source: E. coli BL21(DE3), co-expressed with yeast N-myristoyl CoA transferase, purified, labelled with MTSSL
As usually defined, the stoichiometry N is a count of units in the complex or per binding partner. For B3, the “stoichiometry N” value in data set [3] is 4.

B4: GCAP1^CL(E154C), nitroxide spin-labelled (natural protein, bovine, UniProt P46065 1-205, looked up)
chain: MGNIMSGKSVEELSSTETHQWYKKFMTETPSGQLTLYEFRQFFGLKNLSPWASQYVEQMFETFDFNKDGYIDFMEYVAALSLVLKGKVEQKLRWYFKLYDVDGNGTIDRDELLTIIRAIRAINPTSDSTMTAEEFTDTVFSKIDVNGDGELSLCEFMEGVQKDQMLLDTLTRSLDLTRIVRRLQNGEQDEEGASGRETEAAEADG
modifications: N-terminal myristoylation; MTSSL nitroxide spin-label on Cys154
notes: GCAP1, bovine, D6S background, Cys-less (all four native Cys C18, C29, C106, C125 to Thr), with a single Cys at 154; source: E. coli BL21(DE3), co-expressed with yeast N-myristoyl CoA transferase, purified, labelled with MTSSL
As for B4, in data set [2], the binding result is on record as “binds”.

B5: GCAP1^CL(E57C), nitroxide spin-labelled (natural protein, bovine, UniProt P46065 1-205, looked up)
chain: MGNIMSGKSVEELSSTETHQWYKKFMTETPSGQLTLYEFRQFFGLKNLSPWASQYVCQMFETFDFNKDGYIDFMEYVAALSLVLKGKVEQKLRWYFKLYDVDGNGTIDRDELLTIIRAIRAINPTSDSTMTAEEFTDTVFSKIDVNGDGELSLEEFMEGVQKDQMLLDTLTRSLDLTRIVRRLQNGEQDEEGASGRETEAAEADG
modifications: N-terminal myristoylation; MTSSL nitroxide spin-label on Cys57
notes: GCAP1, bovine, D6S background, Cys-less (all four native Cys C18, C29, C106, C125 to Thr), with a single Cys at 57; source: E. coli BL21(DE3), co-expressed with yeast N-myristoyl CoA transferase, purified, labelled with MTSSL
As for B5, in data set [2], the binding result is “binds”.

B6: wild type GCAP1 (recombinant bovine myristoylated guanylyl cyclase activating protein 1, D6S) (natural protein, UniProt P46065 1-205, looked up)
chain: MGNIMSGKSVEELSSTECHQWYKKFMTECPSGQLTLYEFRQFFGLKNLSPWASQYVEQMFETFDFNKDGYIDFMEYVAALSLVLKGKVEQKLRWYFKLYDVDGNGCIDRDELLTIIRAIRAINPCSDSTMTAEEFTDTVFSKIDVNGDGELSLEEFMEGVQKDQMLLDTLTRSLDLTRIVRRLQNGEQDEEGASGRETEAAEADG
modifications: N-terminal myristoylation
notes: 15N-labelled for NMR; also called GCAP1 D6S mutant; source: E. coli BL21(DE3), co-expressed with yeast N-myristoyl CoA transferase, purified
On to B6, for which the “stoichiometry N” value in data set [4] worked out at 2. The “EC50 of activation of RetGC1 (HEK293 membranes) in the absence of Ca2+ (EGTA), guanylyl cyclase assay” value in data set [5] was less than 2 µM.

The record behind these values is paper PMC5841803, “Retinal guanylyl cyclase activating protein 1 forms a functional dimer” (PLoS ONE, 2018).
